Measured values published in the supplement of paper PMC11780869.

Test system: Bacillus subtilis
Test: cleaved RNA product abundance (RNA/gDNA barcode ratio) relative to median wild-type variant (ratio to wild type); higher = more accumulation of the downstream cleavage product
Procedure, shortened: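 In LB at 37°C, B. subtilis cultures went from OD600 0.0003 to 0.3. Their chromosomes held barcoded reporter mRNAs, truncated aprE or tetM, with RNase Y cleavage-site windows mutagenized via oligos at a 9% error rate. Cleaved RNA, chosen by gel, was reverse transcribed and barcode-sequenced alongside genomic DNA barcodes with UMI collapsing, giving a per-construct RNA:gDNA ratio scaled to the median construct with the unmutated site. This scaled ratio is termed cleaved product abundance.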

[1] = experiment (reporter, strain, medium): exp 4a: truncated aprE reporter, strain BJT201 with 2% xylose (RNase J1 expressed), cleavage site: cggR-gapA (positions -7 to +36 mutated)
[2] = experiment (reporter, strain, medium): exp 8a: truncated aprE reporter, strain BJT201 with 2% xylose (RNase J1 expressed), cleavage site: glnRA (positions -5 to +31 mutated)
[3] = experiment (reporter, strain, medium): exp 2b: truncated aprE reporter, strain BJT200, cleavage site: cggR-gapA (positions -7 to +36 mutated)
[4] = experiment (reporter, strain, medium): exp 6: tetM reporter, strain 168, cleavage site: cggR-gapA (positions -7 to +36 mutated)

## ACAGACGAAGGAGCCGCATAGAAGTTATTAAGGGATGAATAATCCCTCAACATAAATATCTCTCACTTATTTAAA
[1]
  cleaved RNA product abundance: 0.317

## CGACATGTCCCGCTTCTTTCATTAATCCGTTAGCAACTTTTTTGCTATATACATTTAACTTTTAAGAGGAGGAAT
[2]
  cleaved RNA product abundance: 1.81

## ACAGACGAAGGAGCCGCAAAGAAGTTACTAAGGGATGAATAATCCCTCAATATAAATATCTCTCACTTATTTAAA
[3]
  cleaved RNA product abundance: 0.219
[1]
  cleaved RNA product abundance: 0.314
[4]
  cleaved RNA product abundance: 0.275

## ACAGACGAAGGAGCCGCAAAGAATTTATTAAGGGATGAATAGTCCCTCAATATAAATATCTCTCACTTATTTAAA
[1]
  cleaved RNA product abundance: 0.713

## CGACATGTCCCGCTTCTTTCATTAATCCGTTAGCAACAGTTTTGCTATATACATTTTCCTTTTAAGAGGAGGAAT
[2]
  cleaved RNA product abundance: 0.423

## ACAGACGAAGGAGCCGCAAAGAAGTTATTAAGGGATGAATCATCCCTCAATTTAAATATCTCTCACTTATTTAAA
[3]
  cleaved RNA product abundance: 0.169

## ACAGACGAAGGAGCCGCAAAGAAGTTACTAAGGGATAAATAATCCCTCAATATAAATATCTCTCACTTATTTAAA
[3]
  cleaved RNA product abundance: 0.206
[1]
  cleaved RNA product abundance: 0.224

## ACAGACGAAGGAGCCGCAAAGAAGTTATTAAGGTATGAATAATCCCTCAATAAAAATATCTCTCACTTATTTAAA
[3]
  cleaved RNA product abundance: 0.119
[1]
  cleaved RNA product abundance: 0.0613

## ACAGACGAAGGAGCCGCAAAGAAGTTATTAAGAGATGAATAATCCCTCAATATAAAGATCTCTCACTTATTTAAA
[1]
  cleaved RNA product abundance: 0.186

## ACAGACGAAGGAGCCGCAAAGCAGTTATTAAGGGATGAAAAATCCCTCAATATAAATATCTCTCACTTATTTAAA
[1]
  cleaved RNA product abundance: 0.687

## CGACATGTCCCGCTTCTTTCATTAATCCGTTAGCAATTGTTTAGCTATATACATTTACCTTTTAAGAGGAGGAAT
[2]
  cleaved RNA product abundance: 0.468

## ACAGACGAAGGAGCCGCATAGAAGTTATTAACGGATGAATAATCCCTCAATATAAATATCTCTCACTTATTTAAA
[1]
  cleaved RNA product abundance: 0.193

## ACAGACGAAGGAGCCGCAAAGAAGTTATTACGGGATGAATAAACCCTCAATATAAATATCTCTCACTTATTTAAA
[1]
  cleaved RNA product abundance: 0.158

## ACAGACGAAGGAGCCGCAAAGAAGTTATTAAAGGATGAATAATCCCTCTATATAAAAATCTCTCACTTATTTAAA
[1]
  cleaved RNA product abundance: 0.229

## CGACATGTCCCGCTTCTTTCATTAATCCGTTAACAACTGTTTTGCTATATACACTTACCTTTTAAGAGGAGGAAT
[2]
  cleaved RNA product abundance: 0.329

## ACAGACGAAGGAGCCGCAAAGAAGTTATTAAGGGATGAATAATCCCTAAAGATAAATATCTCTCACTTATTTAAA
[3]
  cleaved RNA product abundance: 0.259

## ACAGACGAAGGAGCCGCAAAGAAGTTAATAAGGGATGAATAATCGCTCAATATAAATATCTCTCACTTATTTAAA
[1]
  cleaved RNA product abundance: 0.0788

## ACAGACGAAGGAGCCGCAAAGAAGTAATTAAGGGATGAATAATACCTCAATATAAATATCTCTCACTTATTTAAA
[3]
  cleaved RNA product abundance: 0.115
[1]
  cleaved RNA product abundance: 0.141

## ACAGACGAAGGAGCCGCAAACAAGTTATTAAGGGATGAATAATCCGTCAATATAAATATCTCTCACTTATTTAAA
[1]
  cleaved RNA product abundance: 0.187

## CGACATGTCCCGCTTCTTTCATTAATCCGTTAACAACTGATTTGCTATATACATTTACCTTTTAAGAGGAGGAAT
[2]
  cleaved RNA product abundance: 0.248

## ACAGACGAAGGAGCCGCAAAGAAGCTATTAAGGAATGAATAATCCCTCAATATAAATATCTCTCACTTATTTAAA
[3]
  cleaved RNA product abundance: 0.108
[1]
  cleaved RNA product abundance: 0.101

## CGACATGTCCCGCTTCTTTCATTAATCCGTTAGCAACTGTTGTCCTATATACATTTACCTTTTAAGAGGAGGAAT
[2]
  cleaved RNA product abundance: 0.343

## ACAGACGAAGGAGCCGCAAAGAAGTTATTAAGGGATAAATAATCCCTCATTATAAATATCTCTCACTTATTTAAA
[1]
  cleaved RNA product abundance: 0.267

## CGACATGTCCCGCTTCTTTCATTAATCCGTTATCAACTGTTCTGCTATATACATTTACCTTTTAAGAGGAGGAAT
[2]
  cleaved RNA product abundance: 0.213

## ACAGACGAAGGAGCCGCAAAGTAGTTATTAAGGGATTAATAATCCCTCAATATAAATATCTCTCACTTATTTAAA
[1]
  cleaved RNA product abundance: 1.14

## ACAGACGAAGGAGCCCCAAAGAAGTTATTAAGGGATGAATAATCCCTCAATATAAATATCTCTCACTTATTTAAA
[4]
  cleaved RNA product abundance: 1.36

## ACAGACGAAGGAGCCGCAAAGAAGTTATTAAGGGATGAATAATCCCACAAAATAAATATCTCTCACTTATTTAAA
[1]
  cleaved RNA product abundance: 0.256

## CGACATGTCCCGCTTCTTTCATTAATCCGTTAGCAACTGTTTTGTTAAATACATTTACCTTTTAAGAGGAGGAAT
[2]
  cleaved RNA product abundance: 0.414

## ACAGACGAAGGAGCCGCAAAGAAGTTATCAATGGATGAATAATCCCTCAATATAAATATCTCTCACTTATTTAAA
[1]
  cleaved RNA product abundance: 0.146

## ACAGACGAAGGAGCCGCAAAGAAGTTATTAATGGATGAAAAATCCCTCAATATAAATATCTCTCACTTATTTAAA
[3]
  cleaved RNA product abundance: 0.111
[1]
  cleaved RNA product abundance: 0.166

## ACAGACGAAGGAGCCGCAAAGACGTTATTAAGGGATGAATAATCCCTCAAAATAAATATCTCTCACTTATTTAAA
[3]
  cleaved RNA product abundance: 0.31

## ACAGACGAAGGAGCCGCTATGAAGTTATTAAGGGATGAATAATCCCTCAATATAAATATCTCTCACTTATTTAAA
[1]
  cleaved RNA product abundance: 0.952

## ACAGACGAAGGAGCCGCAAAGAAGTTATTCAGGTATGTATAATCCCTCAATATAAATATCTCTCACTTATTTAAA
[1]
  cleaved RNA product abundance: 0.143

## CGACATGTCCCGCTTCTTTCATTAATCCGTTAGCAACTGTTTTGGTATATATATTTACCTTTTAAGAGGAGGAAT
[2]
  cleaved RNA product abundance: 0.224

## CGACATGTCCCGCTTCTTTCATTAATCCGTTAGCAACTGTTTTGCTATATACATTTACCATTTAAGAGGAGGAAT
[2]
  cleaved RNA product abundance: 1.03

## ACAGACGAAGGAGCCGCAAAGAAGTTATTAAGGGTTGAATAATCCTTCAATATAAATATCTCTCACTTATTTAAA
[1]
  cleaved RNA product abundance: 0.358

## CGACATGTCCCGCTTCTTTCATTAATCCGTTAGCTATTGTTTTGCTATATACATTTACCTTTTAAGAGGAGGAAT
[2]
  cleaved RNA product abundance: 0.432

## ACAGACGAAGGAGCCGCAAAGAATTAATTAAGGGATGAATAATCCCTCAATATAAATATCTCTCACTTATTTAAA
[3]
  cleaved RNA product abundance: 0.257
[1]
  cleaved RNA product abundance: 0.36

## ACAGACGAAGGAGCCGCAAACAAGTTATTAAGGGATGAATAATCCCTCAATATTAATATCTCTCACTTATTTAAA
[3]
  cleaved RNA product abundance: 0.12

## ACAGACGAAGGAGCCGCAAAGAAGTTGTTAAGGGATGAATAATCCCTCTATATAAATATCTCTCACTTATTTAAA
[1]
  cleaved RNA product abundance: 0.411

## ACAGACGAAGGAGCCGCAAAGAAGATATTAAGGGATGAATTATCCCTCAATATAAATATCTCTCACTTATTTAAA
[1]
  cleaved RNA product abundance: 0.572

## ACAGACGAAGGAGCCGCAAATAAGTTATTAAGGGATTAATAATCCCTCAATATAAATATCTCTCACTTATTTAAA
[3]
  cleaved RNA product abundance: 0.863
[1]
  cleaved RNA product abundance: 0.881

## ACAGACGAAGGAGCCGCAAAGAAGTCATTAAGGGATGAATAATCCCTGAATATAAATATCTCTCACTTATTTAAA
[1]
  cleaved RNA product abundance: 0.136

## ACAGACGAAGGAGCCGCAAATAAGTTATTAAGGGATGAAAAATCCCTCAATATAAATATCTCTCACTTATTTAAA
[3]
  cleaved RNA product abundance: 0.805
[1]
  cleaved RNA product abundance: 0.841
[4]
  cleaved RNA product abundance: 0.882

## ACAGACGAAGGAGCCGCAAAGAAGTTATAAAGGGATGTATAATCCCTCAATATAAATATCTCTCACTTATTTAAA
[3]
  cleaved RNA product abundance: 0.322
[1]
  cleaved RNA product abundance: 0.401

## ACAGACGAAGGAGCCGCAAAGAAGTTATTAAAGGATGAATAATCCCTCAATATAAATACCTCTCACTTATTTAAA
[1]
  cleaved RNA product abundance: 0.13

## CGACATGTCCCGCTTCTTTCATTAATACGTTAGCAATTGTTTTGCTATATACATTTACCTTTTAAGAGGAGGAAT
[2]
  cleaved RNA product abundance: 0.823

## ACAGACGAAGGAGCCGCAAAGAAGTTGTTAAGGGATGAATAATTCCTCAATATAAATATCTCTCACTTATTTAAA
[1]
  cleaved RNA product abundance: 0.404

## ACAGACGAAGGAGCCGCAATGAAGTTATTAAGGGATGAATAATCCCTCAATATTAATATCTCTCACTTATTTAAA
[3]
  cleaved RNA product abundance: 0.226

## ACAGACGAAGGAGCCGCAAAGATGTTATTAAGGGATGAATAATTCCTCAATATAAATATCTCTCACTTATTTAAA
[1]
  cleaved RNA product abundance: 0.89

## ACAGACGAAGGAGCCGCAAAGAAGTTATTAAGGGATGAACAATACCTCAATATAAATATCTCTCACTTATTTAAA
[1]
  cleaved RNA product abundance: 0.229

## CGACATGTCCCGCTTCTTTCATTAATCCGTTAGCAACTGTTTTCCTATATACATTTACCTTTTAAGAGGAGGAAT
[2]
  cleaved RNA product abundance: 0.539

## CGACATGTCCCGCTTCTTTCATTATTCCGTTAGCAACTGTTTTGTTATATACATTTACCTTTTAAGAGGAGGAAT
[2]
  cleaved RNA product abundance: 0.541

## ACAGACGAAGGAGCCGCAAAGAAGTTCTTAAGGGATTAATAATCCCTCAATATAAATATCTCTCACTTATTTAAA
[1]
  cleaved RNA product abundance: 0.301

## CGACATGTCCCGCTTCTTTCATTAATCCGTAAGCAACTGTTTTGCTATATACATTTACCTTTTAAGAGGAGGAAT
[2]
  cleaved RNA product abundance: 0.434

## CGACATGTCCCGCTTCTTTCATTAATCCGTTAGCAAATGTTTTGCTATATACATTTACCTTTTAAGAGGAGGAAT
[2]
  cleaved RNA product abundance: 1.17

## ACAGACGAAGGAGCCGCTAACAAGTTATTAAAGGATGAATAATCCCTCAATATAAATATCTCTCACTTATTTAAA
[3]
  cleaved RNA product abundance: 0.111

## ACAGACGAAGGAGCCGCAAAGAAGTTAATAAGGGATTAATAATCCCTCAATATAAATATCTCTCACTTATTTAAA
[3]
  cleaved RNA product abundance: 0.218
[1]
  cleaved RNA product abundance: 0.313

## ACAGACGAAGGAGCCGCAAAGAAGTTATTAAGGAATGAATAATCCCTCAATATAAATATTTCTCACTTATTTAAA
[1]
  cleaved RNA product abundance: 0.136

## ACAGACGAAGGAGCCGCAAAGAAGTTATTAAGGGACTAATAATCCCTCAATATAAATATCTCTCACTTATTTAAA
[3]
  cleaved RNA product abundance: 1.03
[1]
  cleaved RNA product abundance: 1.01

## CGACATGTCCCGCTTCTTTCATTAATCCGTTAGCAACTGTTTTGCGATATACATTTACCTTTTAAGAGGAGGAAT
[2]
  cleaved RNA product abundance: 0.406
